Source: paper PMC3034293 (Biochemistry, 2011)

Molecular target: the molecule itself
Experiment: SEC

B1: Wild-type aldolase B (enzyme, human, UniProt P05062 1-364, looked up)
chain: MAHRFPALTQEQKKELSEIAQSIVANGKGILAADESVGTMGNRLQRIKVENTEENRRQFREILFSVDSSINQSIGGVILFHETLYQKDSQGKLFRNILKEKGIVVGIKLDQGGAPLAGTNKETTIQGLDGLSERCAQYKKDGVDFGKWRAVLRIADQCPSSLAIQENANALARYASICQQNGLVPIVEPEVIPDGDHDLEHCQYVTEKVLAAVYKALNDHHVYLEGTLLKPNMVTAGHACTKKYTPEQVAMATVTALHRTVPAAVPGICFLSGGMSEEDATLNLNAINLCPLPKPWKLSFSYGRALQASALAAWGGKAANKEATQEAFMKRAMANCQAAKGQYVHTGSSGAASTQSLFTACYTY
  stoichiometry N: 4
